Measured values reported in patent publication US20240288453A1 (NATIONAL UNIVERSITY CORPORATION TOKAI NATIONAL HIGHER …, published 2024).

Target: T1, mouse TfR (mouse, UniProt Q62351 89-763, limits assumed)
T1 construct: The assay and the form of the protein are not described
Assay: not described

T1 sequence (Q62351 89-763 limits assumed): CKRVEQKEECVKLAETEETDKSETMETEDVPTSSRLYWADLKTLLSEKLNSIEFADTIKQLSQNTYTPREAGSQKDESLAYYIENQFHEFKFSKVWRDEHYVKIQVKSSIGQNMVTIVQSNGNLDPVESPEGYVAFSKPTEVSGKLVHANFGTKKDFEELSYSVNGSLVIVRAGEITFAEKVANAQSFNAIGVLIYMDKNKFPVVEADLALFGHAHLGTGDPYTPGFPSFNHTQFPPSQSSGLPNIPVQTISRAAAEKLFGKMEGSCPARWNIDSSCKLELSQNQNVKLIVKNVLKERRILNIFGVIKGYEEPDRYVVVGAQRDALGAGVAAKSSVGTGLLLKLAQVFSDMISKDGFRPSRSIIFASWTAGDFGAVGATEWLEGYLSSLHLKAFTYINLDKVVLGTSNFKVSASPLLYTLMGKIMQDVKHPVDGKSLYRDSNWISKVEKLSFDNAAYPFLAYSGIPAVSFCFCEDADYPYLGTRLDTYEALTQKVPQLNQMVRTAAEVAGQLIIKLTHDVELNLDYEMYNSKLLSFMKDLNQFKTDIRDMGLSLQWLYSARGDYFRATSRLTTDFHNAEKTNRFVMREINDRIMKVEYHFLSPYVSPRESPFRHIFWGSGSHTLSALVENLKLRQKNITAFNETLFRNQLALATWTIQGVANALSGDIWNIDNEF

B1: TfR436 antibody (antibody, V domains shown)
VH: DVQLVQSGGGVVQPGRSLRLSCAASGFPFKSYGMHWVRQAPGKGLEWVAVISYDGSNKYYADSVKGRFTISRDNSKNTLYLQMNSLRGEDTAVYYCARDSNFWSGYYSPVDVWGQGTTVTVSS
VL: NFMLTQPHSVSESPGKTVTISCTRSSGSIASNSVQWYQQRPGSAPITVIYEDTQRPSGVPDRFSGSIDSSSNSASLTISGLQTEDEADYYCQSYDSAYHWVFGGGTKLAVL
notes: The antibody is the one of paragraphs 0090 and 0091 of WO2014/073641 and was detected with an anti-human IgG Fc gamma secondary antibody; also called parent antibody
binding result: no binding
